Test results: patent US20200262877A1, “ION CHANNEL-BINDING PEPTIDES AND METHODS OF USE THEREOF” (priority 2017, published 2020)

Assays:
[1] = molecular target: T1, 5HT3a (Homo sapiens, UniProt P46098); experiment: Ion channel panel (IonWorks Barracuda): 5HT3a; assay type: cell-based
T1 construct: host or cells: HEK293 or CHO
T1 sequence (P46098 whole entry, looked up): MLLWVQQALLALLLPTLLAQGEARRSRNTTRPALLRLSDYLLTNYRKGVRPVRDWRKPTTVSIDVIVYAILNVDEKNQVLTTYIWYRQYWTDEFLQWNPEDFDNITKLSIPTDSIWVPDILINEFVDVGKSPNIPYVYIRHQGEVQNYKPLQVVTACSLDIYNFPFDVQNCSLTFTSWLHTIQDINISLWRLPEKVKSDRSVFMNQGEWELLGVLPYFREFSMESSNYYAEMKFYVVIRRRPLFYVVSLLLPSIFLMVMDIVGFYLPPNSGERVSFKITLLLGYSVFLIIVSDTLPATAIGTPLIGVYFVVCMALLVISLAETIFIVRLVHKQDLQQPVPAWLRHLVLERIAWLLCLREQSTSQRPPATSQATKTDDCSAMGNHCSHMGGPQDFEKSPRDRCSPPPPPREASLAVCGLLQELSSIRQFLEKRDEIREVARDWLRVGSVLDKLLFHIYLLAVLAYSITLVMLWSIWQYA
Outline: (§1)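 Peptides were tested in duplicate at final 20 μM and 200 nM, with concentration set by amino acid analysis, in HEPES-buffered saline. They were applied for at least 5 min to HEK293 or CHO cells transfected with each channel. Currents were expressed as % inhibition, 1-(Ipeptide/Icontrol)×100, or % activation, Ipeptide/Icontrol×100, against a channel-matched reference compound.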

[2] = molecular target: T2, α3β4 (Homo sapiens, UniProt P30926+P32297); experiment: Ion channel panel (IonWorks Barracuda): α3β4; assay type: cell-based; conditions: 100% = no change, <100% = inhibition
T2 construct: host or cells: HEK293 or CHO
Outline: as §1

[3] = molecular target: T3, α4β2 (Homo sapiens, UniProt P17787+P43681); experiment: Ion channel panel (IonWorks Barracuda): α4β2; assay type: cell-based; conditions: 100% = no change, <100% = inhibition
T3 construct: host or cells: HEK293 or CHO
Outline: as §1

[4] = molecular target: T4, Cav2.1 (Homo sapiens, UniProt O00555); experiment: cell-based; conditions: 100% = no change, <100% = inhibition
T4 construct: host or cells: HEK293 or CHO
Outline: as §1

[5] = molecular target: T5, Cav2.2 (Homo sapiens, UniProt Q00975); experiment: cell-based; conditions: 100% = no change, <100% = inhibition
T5 construct: host or cells: HEK293 or CHO
Outline: as §1

[6] = molecular target: T6, Kv2.1 (Homo sapiens, UniProt Q14721); experiment: cell-based; conditions: 100% = no change, <100% = inhibition
T6 construct: host or cells: HEK293 or CHO
Outline: as §1

[7] = test system: GABA; experiment: Ion channel panel (IonWorks Barracuda): GABA; assay type: cell-based; conditions: 100% = no change, <100% = inhibition
Outline: as §1

[8] = molecular target: Nav1.5 (Homo sapiens, UniProt Q14524); experiment: in vitro; conditions: 100% = no change; for Activity of Nav1.5 with peptide, expressed as a percentage of the reference compound: peptide at 0.2 μM; for Activity of Nav1.5 with peptide (percentage of the reference compound): peptide at 20 μM
Nav1.5, sequence (Q14524 whole entry): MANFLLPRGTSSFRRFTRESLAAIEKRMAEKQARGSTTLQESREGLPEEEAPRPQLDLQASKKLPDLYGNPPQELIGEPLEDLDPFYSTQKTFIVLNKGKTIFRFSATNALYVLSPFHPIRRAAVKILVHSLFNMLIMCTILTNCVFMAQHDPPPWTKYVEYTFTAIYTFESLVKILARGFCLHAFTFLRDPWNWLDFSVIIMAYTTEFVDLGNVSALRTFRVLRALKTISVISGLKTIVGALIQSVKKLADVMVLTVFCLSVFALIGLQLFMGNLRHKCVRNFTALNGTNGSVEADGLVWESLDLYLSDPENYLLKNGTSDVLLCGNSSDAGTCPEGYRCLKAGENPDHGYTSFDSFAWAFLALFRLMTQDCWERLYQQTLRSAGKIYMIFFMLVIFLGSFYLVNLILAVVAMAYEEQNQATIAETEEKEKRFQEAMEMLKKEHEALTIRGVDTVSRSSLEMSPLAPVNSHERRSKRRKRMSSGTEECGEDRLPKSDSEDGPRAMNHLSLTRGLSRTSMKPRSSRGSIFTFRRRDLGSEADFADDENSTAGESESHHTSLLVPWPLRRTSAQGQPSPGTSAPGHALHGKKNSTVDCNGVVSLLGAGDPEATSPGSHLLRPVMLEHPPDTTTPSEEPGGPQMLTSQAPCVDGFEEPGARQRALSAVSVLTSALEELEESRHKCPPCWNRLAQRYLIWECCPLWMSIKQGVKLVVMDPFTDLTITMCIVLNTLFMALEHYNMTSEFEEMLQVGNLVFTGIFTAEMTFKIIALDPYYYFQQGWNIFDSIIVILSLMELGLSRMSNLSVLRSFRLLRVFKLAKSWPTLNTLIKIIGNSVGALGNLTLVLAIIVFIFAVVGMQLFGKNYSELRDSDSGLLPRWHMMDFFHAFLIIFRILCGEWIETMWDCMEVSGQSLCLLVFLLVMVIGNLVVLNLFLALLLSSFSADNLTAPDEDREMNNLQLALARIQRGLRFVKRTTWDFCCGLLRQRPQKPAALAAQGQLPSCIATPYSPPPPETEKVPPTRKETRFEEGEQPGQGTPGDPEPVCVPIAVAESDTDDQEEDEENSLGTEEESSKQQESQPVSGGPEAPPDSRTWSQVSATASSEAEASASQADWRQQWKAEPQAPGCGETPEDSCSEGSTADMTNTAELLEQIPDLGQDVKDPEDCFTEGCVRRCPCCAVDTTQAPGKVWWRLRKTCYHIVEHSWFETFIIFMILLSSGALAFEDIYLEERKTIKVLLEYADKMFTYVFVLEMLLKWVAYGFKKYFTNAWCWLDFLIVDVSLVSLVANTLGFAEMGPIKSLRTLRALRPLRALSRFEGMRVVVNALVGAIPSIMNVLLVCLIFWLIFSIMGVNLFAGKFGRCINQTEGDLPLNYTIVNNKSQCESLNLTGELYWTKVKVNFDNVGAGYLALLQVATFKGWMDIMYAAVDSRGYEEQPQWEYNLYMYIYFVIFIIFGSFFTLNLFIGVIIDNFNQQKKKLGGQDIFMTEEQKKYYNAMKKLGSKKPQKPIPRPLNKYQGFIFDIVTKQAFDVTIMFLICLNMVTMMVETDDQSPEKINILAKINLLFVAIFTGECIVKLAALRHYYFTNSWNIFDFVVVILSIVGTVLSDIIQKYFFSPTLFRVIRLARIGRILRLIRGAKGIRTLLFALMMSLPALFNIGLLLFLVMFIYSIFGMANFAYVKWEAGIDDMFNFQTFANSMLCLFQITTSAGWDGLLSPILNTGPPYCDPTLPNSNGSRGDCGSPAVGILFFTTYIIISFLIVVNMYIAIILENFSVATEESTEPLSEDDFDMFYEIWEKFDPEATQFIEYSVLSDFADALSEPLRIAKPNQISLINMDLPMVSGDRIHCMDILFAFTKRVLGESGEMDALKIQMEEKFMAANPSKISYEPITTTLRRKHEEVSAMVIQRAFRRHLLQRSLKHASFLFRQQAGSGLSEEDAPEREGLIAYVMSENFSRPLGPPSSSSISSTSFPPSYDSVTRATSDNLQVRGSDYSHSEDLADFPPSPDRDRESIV
Outline: as §1

[9] = molecular target: hERG (Homo sapiens, UniProt Q12809); experiment: in vitro; conditions: 100% = no change, <100% = inhibition
Outline: as §1

[10] = molecular target: T7, Kir2.1 (Homo sapiens, UniProt P63252); experiment: Ion channel panel (IonWorks Barracuda): Kir2.1; assay type: cell-based; conditions: 100% = no change, <100% = inhibition
T7 construct: host or cells: HEK293 or CHO
Outline: as §1

[11] = molecular target: T8, Kv1.1 (Homo sapiens, UniProt Q09470); experiment: cell-based; assay type: cell-based; conditions: 100% = no change, <100% = inhibition
T8 construct: host or cells: HEK293 or CHO
Outline: as §1

[12] = molecular target: T9, Kv1.2 (Homo sapiens, UniProt P16389); experiment: cell-based; assay type: cell-based; conditions: 100% = no change, <100% = inhibition
T9 construct: host or cells: HEK293 or CHO
Outline: as §1

[13] = molecular target: T10, Kv1.3 (Homo sapiens, UniProt P22001); experiment: cell-based; assay type: cell-based; conditions: 100% = no change, <100% = inhibition
T10 construct: host or cells: HEK293 or CHO
Outline: as §1

[14] = molecular target: T11, Nav1.7 (Homo sapiens, UniProt Q15858); experiment: cell-based; assay type: cell-based; conditions: 100% = no change; for Activity of Nav1.7 with peptide, expressed as a percentage of the reference compound: peptide at 0.2 μM; for Activity of Nav1.7 with peptide (percentage of the reference compound): peptide at 20 μM
T11 construct: host or cells: HEK293 or CHO
T11 sequence (Q15858 whole entry): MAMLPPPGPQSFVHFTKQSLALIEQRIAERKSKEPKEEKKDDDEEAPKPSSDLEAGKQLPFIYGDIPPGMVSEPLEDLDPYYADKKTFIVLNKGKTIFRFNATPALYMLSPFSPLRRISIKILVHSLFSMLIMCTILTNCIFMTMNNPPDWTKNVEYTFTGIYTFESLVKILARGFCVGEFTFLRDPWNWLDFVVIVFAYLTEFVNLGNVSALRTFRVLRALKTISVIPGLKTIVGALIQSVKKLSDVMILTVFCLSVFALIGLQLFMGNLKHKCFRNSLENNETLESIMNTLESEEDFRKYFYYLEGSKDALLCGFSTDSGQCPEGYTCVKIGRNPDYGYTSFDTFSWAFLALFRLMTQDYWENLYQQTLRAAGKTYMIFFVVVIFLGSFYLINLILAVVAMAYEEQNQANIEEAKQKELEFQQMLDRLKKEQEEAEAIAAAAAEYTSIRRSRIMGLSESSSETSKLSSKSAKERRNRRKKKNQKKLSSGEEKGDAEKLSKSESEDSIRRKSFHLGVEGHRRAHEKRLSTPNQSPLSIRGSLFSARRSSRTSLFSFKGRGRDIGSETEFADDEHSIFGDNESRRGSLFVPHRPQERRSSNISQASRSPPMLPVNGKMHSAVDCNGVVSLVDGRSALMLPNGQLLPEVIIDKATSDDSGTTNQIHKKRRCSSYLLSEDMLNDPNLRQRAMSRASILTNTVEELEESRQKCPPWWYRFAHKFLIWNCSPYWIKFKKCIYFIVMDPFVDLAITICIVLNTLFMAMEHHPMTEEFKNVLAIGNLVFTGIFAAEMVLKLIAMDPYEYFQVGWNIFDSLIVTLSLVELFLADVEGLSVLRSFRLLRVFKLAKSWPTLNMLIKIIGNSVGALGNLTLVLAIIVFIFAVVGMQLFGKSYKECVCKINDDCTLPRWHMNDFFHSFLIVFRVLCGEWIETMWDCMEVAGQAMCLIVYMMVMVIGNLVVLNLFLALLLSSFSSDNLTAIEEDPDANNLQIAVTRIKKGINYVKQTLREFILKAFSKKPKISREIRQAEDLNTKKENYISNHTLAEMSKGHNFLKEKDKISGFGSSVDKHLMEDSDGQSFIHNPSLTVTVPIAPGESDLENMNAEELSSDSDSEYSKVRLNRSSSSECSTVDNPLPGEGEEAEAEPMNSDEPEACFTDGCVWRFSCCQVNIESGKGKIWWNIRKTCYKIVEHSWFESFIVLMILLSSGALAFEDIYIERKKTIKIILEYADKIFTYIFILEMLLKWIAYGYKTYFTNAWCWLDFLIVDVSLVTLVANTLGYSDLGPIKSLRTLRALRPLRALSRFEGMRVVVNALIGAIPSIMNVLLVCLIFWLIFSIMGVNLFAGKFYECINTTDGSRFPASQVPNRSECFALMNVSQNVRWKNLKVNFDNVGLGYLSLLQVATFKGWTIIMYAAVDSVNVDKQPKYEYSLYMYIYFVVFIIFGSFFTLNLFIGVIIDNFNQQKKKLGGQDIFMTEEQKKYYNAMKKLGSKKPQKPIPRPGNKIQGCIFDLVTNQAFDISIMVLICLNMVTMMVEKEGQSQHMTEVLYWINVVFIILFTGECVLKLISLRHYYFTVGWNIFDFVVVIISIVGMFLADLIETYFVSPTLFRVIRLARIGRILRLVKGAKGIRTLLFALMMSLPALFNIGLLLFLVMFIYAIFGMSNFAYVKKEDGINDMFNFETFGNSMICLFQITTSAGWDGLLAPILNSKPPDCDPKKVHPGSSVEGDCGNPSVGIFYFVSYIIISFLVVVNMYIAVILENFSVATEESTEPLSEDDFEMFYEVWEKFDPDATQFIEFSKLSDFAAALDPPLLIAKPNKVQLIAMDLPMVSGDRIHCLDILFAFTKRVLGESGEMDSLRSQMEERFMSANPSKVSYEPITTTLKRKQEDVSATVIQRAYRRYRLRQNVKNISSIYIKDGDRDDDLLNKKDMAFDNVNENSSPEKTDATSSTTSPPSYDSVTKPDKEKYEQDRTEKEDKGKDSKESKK

[15] = molecular target: T12, NR2A (Homo sapiens, UniProt Q12879); experiment: Ion channel panel (IonWorks Barracuda): NR2A; assay type: cell-based; conditions: 100% = no change, <100% = inhibition
T12 construct: host or cells: HEK293 or CHO
Outline: as §1

[16] = molecular target: T13, NR2B (Homo sapiens, UniProt Q13224); experiment: Ion channel panel (IonWorks Barracuda): NR2B; assay type: cell-based; conditions: 100% = no change, <100% = inhibition
T13 construct: host or cells: HEK293 or CHO
Outline: as §1

[17] = molecular target: T14, TRPA1 (Homo sapiens, UniProt O75762); experiment: Ion channel panel (IonWorks Barracuda): TRPA1; assay type: cell-based; conditions: 100% = no change, <100% = inhibition
T14 construct: host or cells: HEK293 or CHO
Outline: as §1

[18] = molecular target: T15, TRPV1 (Homo sapiens, UniProt Q8NER1); experiment: Ion channel panel (IonWorks Barracuda): TRPV1; assay type: cell-based; conditions: 100% = no change, <100% = inhibition
T15 construct: host or cells: HEK293 or CHO
T15 sequence (Q8NER1 whole entry): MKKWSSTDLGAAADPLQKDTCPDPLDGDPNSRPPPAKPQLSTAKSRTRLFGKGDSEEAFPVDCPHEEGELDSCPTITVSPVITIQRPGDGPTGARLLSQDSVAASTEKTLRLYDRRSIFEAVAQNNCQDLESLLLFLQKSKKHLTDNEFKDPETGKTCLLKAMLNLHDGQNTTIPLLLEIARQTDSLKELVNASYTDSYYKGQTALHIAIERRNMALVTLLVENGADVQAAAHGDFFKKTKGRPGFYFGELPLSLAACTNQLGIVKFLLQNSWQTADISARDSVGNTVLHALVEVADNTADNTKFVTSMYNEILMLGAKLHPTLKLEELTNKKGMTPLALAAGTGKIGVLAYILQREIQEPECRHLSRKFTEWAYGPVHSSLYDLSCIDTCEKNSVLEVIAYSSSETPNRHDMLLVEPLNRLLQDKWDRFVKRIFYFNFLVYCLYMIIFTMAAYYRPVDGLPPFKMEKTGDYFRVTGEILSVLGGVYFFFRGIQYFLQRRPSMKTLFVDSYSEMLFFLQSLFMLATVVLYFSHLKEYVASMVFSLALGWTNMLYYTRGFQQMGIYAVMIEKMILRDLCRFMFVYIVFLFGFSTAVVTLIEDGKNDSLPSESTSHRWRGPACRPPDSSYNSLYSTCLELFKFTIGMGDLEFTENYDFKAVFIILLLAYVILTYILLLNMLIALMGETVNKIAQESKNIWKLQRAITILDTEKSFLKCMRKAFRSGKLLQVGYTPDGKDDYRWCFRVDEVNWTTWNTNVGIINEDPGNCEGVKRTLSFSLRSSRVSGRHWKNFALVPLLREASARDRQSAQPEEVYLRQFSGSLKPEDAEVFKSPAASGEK
Outline: as §1

[19] = first of two Nav1.5 columns (probably TP1)
[20] = second of two Nav1.5 columns (probably TP2)
[21] = first of two Nav1.7 columns (probably TP1)
[22] = second of two Nav1.7 columns (probably TP2)

11 (GSGDCLPHLKRCKENNDCCSKKCKRRGANPEKRCR) [compound 11]
Activity of 5HT3a with peptide (percentage of the reference compound) [1]: 85%
Activity of 5HT3a with peptide, expressed as a percentage of the reference compound [1]: 73%
Activity of a3b4 with peptide, expressed as a percentage of the reference compound ([2]; peptide at 0.2 μM): 95%
Activity of a3b4 with peptide (percentage of the reference compound) ([2]; peptide at 20 μM): 96%
Activity of a4b2 with peptide, expressed as a percentage of the reference compound ([3]; peptide at 0.2 μM): 111%
Activity of a4b2 with peptide (percentage of the reference compound) ([3]; peptide at 20 μM): 88%
Activity of Cav2.1 with peptide, expressed as a percentage of the reference compound ([4]; peptide at 0.2 μM): 104%
Activity of Cav2.1 with peptide (percentage of the reference compound) ([4]; peptide at 20 μM): 110%
Activity of Cav2.2 with peptide, expressed as a percentage of the reference compound ([5]; peptide at 0.2 μM): 100%
Activity of Cav2.2 with peptide (percentage of the reference compound) ([5]; peptide at 20 μM): 103%
Activity of Kv2.1 with peptide, expressed as a percentage of the reference compound ([6]; peptide at 0.2 μM): 121%
Activity of Kv2.1 with peptide (percentage of the reference compound) ([6]; peptide at 20 μM): 110%
Activity of GABA with peptide, expressed as a percentage of the reference compound ([7]; peptide at 0.2 μM): 96%
Activity of GABA with peptide (percentage of the reference compound) ([7]; peptide at 20 μM): 105%
Activity of Nav1.5 with peptide, expressed as a percentage of the reference compound [8, 19]: 107%
Activity of Nav1.5 with peptide, expressed as a percentage of the reference compound [8, 20]: 107%
Activity of Nav1.5 with peptide (percentage of the reference compound) [8, 19]: 113%
Activity of Nav1.5 with peptide (percentage of the reference compound) [8, 20]: 118%
Activity of hERG with peptide, expressed as a percentage of the reference compound ([9]; peptide at 0.2 μM): 97%
Activity of hERG with peptide (percentage of the reference compound) ([9]; peptide at 20 μM): 99%
Activity of Kir2.1 with peptide, expressed as a percentage of the reference compound ([10]; peptide at 0.2 μM): 107%
Activity of Kir2.1 with peptide (percentage of the reference compound) ([10]; peptide at 20 μM): 97%
Activity of Kv1.1 with peptide, expressed as a percentage of the reference compound ([11]; peptide at 0.2 μM): 99%
Activity of Kv1.1 with peptide (percentage of the reference compound) ([11]; peptide at 20 μM): 55%
Activity of Kv1.2 with peptide, expressed as a percentage of the reference compound ([12]; peptide at 0.2 μM): 103%
Activity of Kv1.2 with peptide (percentage of the reference compound) ([12]; peptide at 20 μM): 46%
Activity of Kv1.3 with peptide, expressed as a percentage of the reference compound ([13]; peptide at 0.2 μM): 101%
Activity of Kv1.3 with peptide (percentage of the reference compound) ([13]; peptide at 20 μM): 87%
Activity of Nav1.7 with peptide, expressed as a percentage of the reference compound [14, 21]: 107%
Activity of Nav1.7 with peptide, expressed as a percentage of the reference compound [14, 22]: 107%
Activity of Nav1.7 with peptide (percentage of the reference compound) [14, 21]: 96%
Activity of Nav1.7 with peptide (percentage of the reference compound) [14, 22]: 87%
Activity of NR2A with peptide, expressed as a percentage of the reference compound ([15]; peptide at 0.2 μM): 103%
Activity of NR2A with peptide (percentage of the reference compound) ([15]; peptide at 20 μM): 106%
Activity of NR2B with peptide, expressed as a percentage of the reference compound ([16]; peptide at 0.2 μM): 103%
Activity of NR2B with peptide (percentage of the reference compound) ([16]; peptide at 20 μM): 78%
Activity of TRPA1 with peptide, expressed as a percentage of the reference compound ([17]; peptide at 0.2 μM): 100%
Activity of TRPA1 with peptide (percentage of the reference compound) ([17]; peptide at 20 μM): 109%
Activity of TRPV1 with peptide, expressed as a percentage of the reference compound ([18]; peptide at 0.2 μM): 100%
Activity of TRPV1 with peptide (percentage of the reference compound) ([18]; peptide at 20 μM): 100%
